Where a chain is given by its changes, count along the chain named. Where two headings read alike, the source gives them in different places.

Experimental findings from patent publication US20240285753A1 (DUKE UNIVERSITY, published 2024) are described below.

Assay [1] deals with T1, S2hlx-Ex20.
T1 chain: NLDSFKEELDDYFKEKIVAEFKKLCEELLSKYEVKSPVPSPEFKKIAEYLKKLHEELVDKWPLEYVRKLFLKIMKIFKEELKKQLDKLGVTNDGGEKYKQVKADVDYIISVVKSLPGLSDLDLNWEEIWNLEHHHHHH
Nature of the assay: SPR, mAb captured, antigen as analyte.

Assay [2] has as its target T2, S2hlx-Ex17.
T2 chain: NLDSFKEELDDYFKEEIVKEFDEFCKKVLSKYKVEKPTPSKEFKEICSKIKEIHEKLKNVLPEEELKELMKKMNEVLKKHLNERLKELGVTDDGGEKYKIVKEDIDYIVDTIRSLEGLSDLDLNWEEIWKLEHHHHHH
The experiment in a line: SPR, mAb captured, antigen as analyte.

Assay [3] concerns the target T3, S2hlx-Ex15.
T3 chain: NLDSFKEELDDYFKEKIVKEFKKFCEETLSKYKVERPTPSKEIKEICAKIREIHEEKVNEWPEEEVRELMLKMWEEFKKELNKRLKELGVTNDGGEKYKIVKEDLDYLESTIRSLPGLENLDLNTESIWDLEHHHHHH
Nature of the assay: SPR, mAb captured, antigen as analyte.

Assay [4] deals with T4, S2hlx-Ex25.
T4 chain: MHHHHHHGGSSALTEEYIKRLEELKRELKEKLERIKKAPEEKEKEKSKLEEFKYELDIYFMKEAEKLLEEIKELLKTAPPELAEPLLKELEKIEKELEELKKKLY
Nature of the assay: ELISA; antigen coated, mAb titrated.

The target of assay [5] is T5, S2hlx-Ex54.
T5 chain: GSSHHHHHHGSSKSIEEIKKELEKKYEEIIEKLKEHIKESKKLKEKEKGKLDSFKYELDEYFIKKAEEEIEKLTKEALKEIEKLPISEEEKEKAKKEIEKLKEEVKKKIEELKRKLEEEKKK
Nature of the assay: ELISA; antigen coated, mAb titrated.

For assay [6], the target named is T6, S2hlx-Ex46.
T6 epitope scaffold: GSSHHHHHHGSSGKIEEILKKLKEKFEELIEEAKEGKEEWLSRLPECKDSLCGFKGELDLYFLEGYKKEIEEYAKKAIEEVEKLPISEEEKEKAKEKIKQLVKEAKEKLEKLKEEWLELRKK
Nature of the assay: ELISA; antigen coated, mAb titrated.

The target of assay [7] is T7, S2hlx-Ex34.
T7 chain: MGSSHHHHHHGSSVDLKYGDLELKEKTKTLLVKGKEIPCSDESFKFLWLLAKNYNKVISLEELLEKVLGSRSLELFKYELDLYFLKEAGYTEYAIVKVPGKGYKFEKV
The experiment in a line: ELISA; antigen coated, mAb titrated.

Assay [8] has as its target T4, S2hlx-Ex25. The experiment in a line: ELISA; antigen coated, mAb titrated.
Assay [9] has as its target T5, S2hlx-Ex54. The experiment in a line: SPR, single cycle; mAb captured on Protein A, epitope scaffold as analyte.
Assay [10] deals with T6, S2hlx-Ex46. The description is as above.
Assay [11] addresses T8, S2hlx-Ex37.
T8 chain: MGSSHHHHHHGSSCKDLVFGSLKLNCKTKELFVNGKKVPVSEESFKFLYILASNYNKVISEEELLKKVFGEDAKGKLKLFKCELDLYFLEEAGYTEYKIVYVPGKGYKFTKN
The assay is described as above.

For assay [12], the target named is S2hlx-Ex2-Trx. Nature of the assay: ELISA, coated antigen, mAb titrated.
The target of assay [13] is S2hlx-Ex4-Trx. The experiment in a line: ELISA, coated antigen, mAb titrated.
The target in assay [14] is T3, S2hlx-Ex15. Nature of the assay: ELISA; antigen coated, mAb titrated.
The target of assay [15] is T9, S2hlx-Ex15 F1148A.
T9 epitope scaffold: T3 chain with F5A
Nature of the assay: ELISA; antigen coated, mAb titrated.

Assay [16] has as its target SARS-CoV-2 spike (WA-2, 2P) (SARS-CoV-2, UniProt P0DTC2 14-1208).
The target in assay [17] is T5, S2hlx-Ex54. The experiment in a line: SPR, mAb captured, scaffold as analyte.
For assay [18], the target named is T7, S2hlx-Ex34. Nature of the assay: SPR, mAb captured, scaffold as analyte.
Assay [19] concerns the target T8, S2hlx-Ex37. The experiment in a line: SPR, mAb captured, scaffold as analyte.
Assay [20] has as its target T10, S2hlx-Ex35.
T10 chain: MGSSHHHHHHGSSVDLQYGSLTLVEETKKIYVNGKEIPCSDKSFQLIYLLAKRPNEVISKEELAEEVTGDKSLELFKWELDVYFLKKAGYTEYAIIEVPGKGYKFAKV
Nature of the assay: ELISA; antigen coated, mAb titrated.

Assay [21] concerns the target T7, S2hlx-Ex34. The experiment in a line: ELISA; antigen coated, mAb titrated.
Assay [22] addresses T11, S2hlx-Ex8-Trx.
T11 chain: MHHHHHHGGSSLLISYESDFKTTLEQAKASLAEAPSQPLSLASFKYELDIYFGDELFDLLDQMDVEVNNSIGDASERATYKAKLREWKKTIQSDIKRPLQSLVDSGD
Nature of the assay: SPR, mAb captured, antigen as analyte.

In assay [23] the target is T4, S2hlx-Ex25. The experiment in a line: SPR, mAb captured, antigen as analyte.
For assay [24], the target named is T7, S2hlx-Ex34. Nature of the assay: SPR, mAb captured, antigen as analyte.
For assay [25], the target named is T1, S2hlx-Ex20. The experiment in a line: SPR, mAb captured, antigen as analyte.
In assay [26] the target is T2, S2hlx-Ex17. The experiment in a line: SPR, mAb captured, antigen as analyte.
The target in assay [27] is T3, S2hlx-Ex15. Nature of the assay: SPR, mAb captured, antigen as analyte.
Assay [28] addresses T12, FP-13.
T12 epitope scaffold: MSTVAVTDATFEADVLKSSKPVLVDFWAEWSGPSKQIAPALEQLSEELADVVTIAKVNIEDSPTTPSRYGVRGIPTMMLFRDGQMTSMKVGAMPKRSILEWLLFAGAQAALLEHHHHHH
The experiment in a line: ELISA, coated antigen, mAb titrated.

In assay [29] the target is T13, SARS-CoV-2 spike (WA-2, 2P) (SARS-CoV-2, UniProt P0DTC2 14-1208). The experiment in a line: ELISA, coated spike, mAb titrated.
Assay [30] deals with T13, SARS-CoV-2 spike (WA-2, 2P). Nature of the assay: ELISA, coated antigen, mAb titrated.
Assay [31] shares this target. The experiment in a line: ELISA, coated spike, mAb titrated. This is another data set of the same source.

B1: CC40.8 mAb (antibody, V domains shown)
VH: EVQLLESGGGLVQPGGSLRLSCAASGFTFSSYVMTWARQAPGKGLEWVSAISGTGYTYYADSVKGRFTVSRDNSKNTLFLQMSSLRAEDTAVYYCAITMAPVVWGQGTTVTVSS
VL: SYELTQPPSVSVSPGQTARITCSGDALPKRYAYWYQQKSGQAPILVIYEDKKRPSGIPERLSGSKSGTVATLTISGAQVEDEADYYCYSTDSSGNHAVFGGGTQLTVL
On to B1, for which the Kd in assay [1] was found to be 0.0106 µM; in [2], 0.0271 µM; in assay [3], 0.0034 µM; in [9], 0.15 µM; in assay [10], 21.5 µM; in [11] it was 0.849 µM. Moreover, the Kd worked out at 0.0027 µM in [16]; 0.15 µM in [17]; 0.486 µM in assay [18]; 0.849 µM in assay [19]; 1.23 µM in [22]; 12.1 µM in assay [23]. Moreover, the Kd in assay [24] was 3.88 µM; in [25], 0.0106 µM; in assay [26], 0.0271 µM; in [27], 0.0034 µM. For the same molecule, the “EC50 (read off the curve)” value was about 0.2 mg/L in assay [4]; about 0.04 mg/L in [5]; about 0.2 mg/L in [6]; about 0.4 mg/L in [7]; about 0.01 mg/L in assay [8]; about 0.1 mg/L in [12]. Besides, the “EC50 (read off the curve)” value in assay [13] is about 0.05 mg/L; in [14], about 0.02 mg/L; in assay [15], about 0.02 mg/L; in assay [20], about 0.8 mg/L; in assay [21] it was about 0.1 mg/L.

B2: COV44-79 (antibody, V domains shown)
VH: QVQLVESGGGVVQPGRSLRLSCAASGLTFSGYAMHWVRQAPGKGLEWVAVISRDARNKYYADSVKGRFTISRDNSKKTVYLEMNSLRVEDTAVYYCAILIIPGITEPGSPDALDIWGQGTMVSVSS
VL: DIQMTQSPSSMSASVGDRVTITCRASQDISKWLAWYQQRPGKAPKLLIYAASSLQSGVPSRFSGSGSGTDFTLTISSLQPEDFATYYCQQASSFPWSITFGQGTRLEIR
Regarding B2, the “EC50 (read off the curve)” value in [28] is about 3 mg/L.

B3: DH1498 (antibody, V domains shown)
VH: QVQLQESGPGLVKPSETLSLTCAVSGGSVSSDTYYWSWIRQPPGKGLEWIGYIYNSGSTNYNPSLKSRVTISVDTSKSQFSLNLGSVTAADTAVYYCAREGAGTYPPKNDAFDIWGQGTLVTVSS
VL: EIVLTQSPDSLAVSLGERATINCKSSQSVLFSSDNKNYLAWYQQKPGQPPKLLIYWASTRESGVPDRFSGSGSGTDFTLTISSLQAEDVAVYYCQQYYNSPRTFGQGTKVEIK
For B3, in assay [29], the “EC50 (read off the curve)” value was about 0.04 mg/L.

B4: inferred UCA of DH1501.1, DH1501.2 and DH1501.3 (antibody, V domains shown)
VH: QVQLVQSGAEVKKPGASVKVSCKASGYTFTSYYMHWVRQAPGQGLEWMGIINPSGGSTSYAQKFQGRVTMTRDTSTSTVYMELSSLRSEDTAVYYCARMSRYGAFDIWGQGIMVTVSS
VL: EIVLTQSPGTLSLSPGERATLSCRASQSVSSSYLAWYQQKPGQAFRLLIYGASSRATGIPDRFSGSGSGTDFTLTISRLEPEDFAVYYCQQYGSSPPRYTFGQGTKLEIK
B4: the “EC50 (read off the curve)” value in assay [30] is about 0.02 mg/L.

B5: Cov44-26 (antibody, V domains shown)
VH: QVQLVQSGAEVKKPGASVKVSCKASGYTFSNFYMNWVRQAPGQGLEWVGLISPSAGYTAYAQMFQGRVTMTRDTSTSTVYMELSSLRSEDTAVYYCARVAVAGPNDYWGQGTLVTVSS
VL: EIVLTQSPGTLSLSPGERATLSCRASQSISSSYLAWYQQKPGQAPRLVIFAASTRATGIPDRFSGSGSGTDFTLTITRLEPEDFALYYCQHYRSSPPLWTFGQGTKVEIR
Turning to B5, the “EC50 (read off the curve)” value in assay [4] is about 0.02 mg/L.

B6: DH1509 (antibody, V domains shown)
VH: QVQLVESGGGVVQPGRSLRLSCAASGFTLSSHGIHWVRQAPGKGLEWVAVTSFDGRNKKFGDSVKGRFTISRDNSKNTVYLQMNSLRTEDTAVYYCAKDWGDDYSRWYFDLWGRGTLVTVSS
VL: DIQMTQSPSSLSASVGDRVTITCQASHDITKYLNWYQQKPGRAPKLLIYDASNLKTGVPSRFSGSGSGTDFTFTITSLQPEDLATYYCQQSDVLPITFGQGTRLEIK
For B6, in assay [31], the “EC50 (read off the curve)” value is about 0.6 mg/L.
